Assay results: PMC6266874

Assays:
Test in all cases: GST-WRKY pull-down of BIK1-HA from leaf extract
Settings in all cases: reference: wild type BIK1; sites S89,T90
WRKY33 = WRKY33 (UniProt Q8S8P5)
WRKY50 = WRKY50 (UniProt Q8VWQ5)
WRKY57 = WRKY57 (UniProt Q9C983)

binding against the reference (WRKY33): stronger
binding against the reference (WRKY50): stronger
binding against the reference (WRKY57): stronger
Substance: BIK1 (Botrytis-induced kinase 1) (from UniProt O48814) S89A/T90A
